Experimental data taken from PMC4975481, “Importance of Hypervariable Region 2 for Stability and Affinity of a Shark Single-Domain Antibody Specific for Ebola Virus Nucleoprotein” (PLoS ONE, 2016).

Target: T1, Ebola virus Viral Protein 40 (Ebola virus (Zaire ebolavirus), strain …, UniProt Q05128)
T1 construct: also called VP40; VP 40; source: bought: IBT Bioservices
Assay: SPR
Conditions: both partners purified

T1 sequence (Q05128 whole entry): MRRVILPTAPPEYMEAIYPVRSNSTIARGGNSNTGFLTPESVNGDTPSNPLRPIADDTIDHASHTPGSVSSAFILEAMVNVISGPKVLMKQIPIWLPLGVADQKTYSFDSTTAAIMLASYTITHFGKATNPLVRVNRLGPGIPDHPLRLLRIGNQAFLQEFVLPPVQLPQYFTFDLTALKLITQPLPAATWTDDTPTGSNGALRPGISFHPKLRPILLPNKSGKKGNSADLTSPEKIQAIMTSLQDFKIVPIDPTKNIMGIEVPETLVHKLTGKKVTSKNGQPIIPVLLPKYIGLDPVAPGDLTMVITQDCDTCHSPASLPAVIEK

B1: shark096 (VHH)
VHH: RVDQTPRSVTKETGESLTINCVLRDASYAVGSTCWYRKKSGSTNEESISKGGRYVETVNSGSKSFSLRINDLTVEDGGTYRCGVSTYNWCGVRGLGCVHGACGDGTAVTVN
notes: also called unfused sdAb portion of DSTL096; parental sdAb
B1: no binding.
